In publication PMC12088422 (Proceedings of the National Academy of Sciences of the …, 2025):

Target: the molecule itself
Assay: SEC-MALS

B1: Pseudomonas aeruginosa PAO1 glutamyl-tRNA synthetase (enzyme, UniProt Q9XCL6 1-494, looked up)
chain: MTTVRTRIAPSPTGDPHVGTAYIALFNLCFARQHGGQFILRIEDTDQLRSTRESEQQIYDALRWLGIEWDEGPDVGGPHGPYRQSERGHIYKKYSDELVEKGHAFTCFCTPERLDAVRAEQMARKETPRYDGHCMHLPKDEVQRRLAAGESHVTRMKVPTEGVCVVPDMLRGDVEIPWDRMDMQVLMKADGLPTYFLANVVDDHLMGITHVLRGEEWLPSAPKLIKLYEYFGWEQPQLCYMPLLRNPDKSKLSKRKNPTSITFYERMGYLPQALLNYLGRMGWSMPDEREKFTLAEMIEHFDLSRVSLGGPIFDLEKLSWLNGQWIREQSVEEFAREVQKWALNPEYLMKIAPHVQGRVENFSQIAPLAGFFFSGGVPLDASLFEHKKLDPTQVRQVLQLVLWKLESLRQWEKERITGCIQAVAEHLQLKLRDVMPLMFPAITGHASSVSVLDAMEILGADLSRYRLRQALELLGGASKKETKEWEKIRDAIPG
Q: How did the “stoichiometry N” value turn out when B1 was run?
A: The value was 2.
